Tests used:
HeLa Kyoto [1] = assay: melting temperature (median over replicates), in situ; higher = more thermally stable
HeLa Kyoto [2] = assay: solubility in G1/S (NP-40 vs SDS abundance) (log2 ratio); higher = more soluble; settings: cell cycle stage: G1/S
HeLa Kyoto [3] = assay: solubility change mitosis vs G1/S (difference of NP-40 vs SDS log2 ratios) (log2 ratio difference); higher = more soluble in mitosis
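Wherever melting temperature (median over replicates), in situ is given: HeLa Kyoto cells synchronized by double thymidine or nocodazole block, proteins quantified by TMT10plex mass spectrometry, three independent biological replicates.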
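Wherever solubility change mitosis vs G1/S (difference of NP-40 vs SDS log2 ratios) is given: synchronized HeLa Kyoto cells (double thymidine block for G1/S, nocodazole release for mitosis), protein amounts in NP-40 versus SDS lysates quantified by mass spectrometry, three biological replicates.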
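Wherever solubility in G1/S (NP-40 vs SDS abundance) is given: HeLa Kyoto cells arrested at G1/S by double thymidine block, proteins quantified by TMT10plex mass spectrometry in mild NP-40 versus SDS extracts, three biological replicates.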

Chain of DNAJC19 (chain, as listed by the source): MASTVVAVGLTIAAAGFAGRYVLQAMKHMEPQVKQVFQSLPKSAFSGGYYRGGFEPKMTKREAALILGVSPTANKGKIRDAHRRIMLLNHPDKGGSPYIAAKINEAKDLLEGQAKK
Chain of WNK2 (chain, as listed by the source): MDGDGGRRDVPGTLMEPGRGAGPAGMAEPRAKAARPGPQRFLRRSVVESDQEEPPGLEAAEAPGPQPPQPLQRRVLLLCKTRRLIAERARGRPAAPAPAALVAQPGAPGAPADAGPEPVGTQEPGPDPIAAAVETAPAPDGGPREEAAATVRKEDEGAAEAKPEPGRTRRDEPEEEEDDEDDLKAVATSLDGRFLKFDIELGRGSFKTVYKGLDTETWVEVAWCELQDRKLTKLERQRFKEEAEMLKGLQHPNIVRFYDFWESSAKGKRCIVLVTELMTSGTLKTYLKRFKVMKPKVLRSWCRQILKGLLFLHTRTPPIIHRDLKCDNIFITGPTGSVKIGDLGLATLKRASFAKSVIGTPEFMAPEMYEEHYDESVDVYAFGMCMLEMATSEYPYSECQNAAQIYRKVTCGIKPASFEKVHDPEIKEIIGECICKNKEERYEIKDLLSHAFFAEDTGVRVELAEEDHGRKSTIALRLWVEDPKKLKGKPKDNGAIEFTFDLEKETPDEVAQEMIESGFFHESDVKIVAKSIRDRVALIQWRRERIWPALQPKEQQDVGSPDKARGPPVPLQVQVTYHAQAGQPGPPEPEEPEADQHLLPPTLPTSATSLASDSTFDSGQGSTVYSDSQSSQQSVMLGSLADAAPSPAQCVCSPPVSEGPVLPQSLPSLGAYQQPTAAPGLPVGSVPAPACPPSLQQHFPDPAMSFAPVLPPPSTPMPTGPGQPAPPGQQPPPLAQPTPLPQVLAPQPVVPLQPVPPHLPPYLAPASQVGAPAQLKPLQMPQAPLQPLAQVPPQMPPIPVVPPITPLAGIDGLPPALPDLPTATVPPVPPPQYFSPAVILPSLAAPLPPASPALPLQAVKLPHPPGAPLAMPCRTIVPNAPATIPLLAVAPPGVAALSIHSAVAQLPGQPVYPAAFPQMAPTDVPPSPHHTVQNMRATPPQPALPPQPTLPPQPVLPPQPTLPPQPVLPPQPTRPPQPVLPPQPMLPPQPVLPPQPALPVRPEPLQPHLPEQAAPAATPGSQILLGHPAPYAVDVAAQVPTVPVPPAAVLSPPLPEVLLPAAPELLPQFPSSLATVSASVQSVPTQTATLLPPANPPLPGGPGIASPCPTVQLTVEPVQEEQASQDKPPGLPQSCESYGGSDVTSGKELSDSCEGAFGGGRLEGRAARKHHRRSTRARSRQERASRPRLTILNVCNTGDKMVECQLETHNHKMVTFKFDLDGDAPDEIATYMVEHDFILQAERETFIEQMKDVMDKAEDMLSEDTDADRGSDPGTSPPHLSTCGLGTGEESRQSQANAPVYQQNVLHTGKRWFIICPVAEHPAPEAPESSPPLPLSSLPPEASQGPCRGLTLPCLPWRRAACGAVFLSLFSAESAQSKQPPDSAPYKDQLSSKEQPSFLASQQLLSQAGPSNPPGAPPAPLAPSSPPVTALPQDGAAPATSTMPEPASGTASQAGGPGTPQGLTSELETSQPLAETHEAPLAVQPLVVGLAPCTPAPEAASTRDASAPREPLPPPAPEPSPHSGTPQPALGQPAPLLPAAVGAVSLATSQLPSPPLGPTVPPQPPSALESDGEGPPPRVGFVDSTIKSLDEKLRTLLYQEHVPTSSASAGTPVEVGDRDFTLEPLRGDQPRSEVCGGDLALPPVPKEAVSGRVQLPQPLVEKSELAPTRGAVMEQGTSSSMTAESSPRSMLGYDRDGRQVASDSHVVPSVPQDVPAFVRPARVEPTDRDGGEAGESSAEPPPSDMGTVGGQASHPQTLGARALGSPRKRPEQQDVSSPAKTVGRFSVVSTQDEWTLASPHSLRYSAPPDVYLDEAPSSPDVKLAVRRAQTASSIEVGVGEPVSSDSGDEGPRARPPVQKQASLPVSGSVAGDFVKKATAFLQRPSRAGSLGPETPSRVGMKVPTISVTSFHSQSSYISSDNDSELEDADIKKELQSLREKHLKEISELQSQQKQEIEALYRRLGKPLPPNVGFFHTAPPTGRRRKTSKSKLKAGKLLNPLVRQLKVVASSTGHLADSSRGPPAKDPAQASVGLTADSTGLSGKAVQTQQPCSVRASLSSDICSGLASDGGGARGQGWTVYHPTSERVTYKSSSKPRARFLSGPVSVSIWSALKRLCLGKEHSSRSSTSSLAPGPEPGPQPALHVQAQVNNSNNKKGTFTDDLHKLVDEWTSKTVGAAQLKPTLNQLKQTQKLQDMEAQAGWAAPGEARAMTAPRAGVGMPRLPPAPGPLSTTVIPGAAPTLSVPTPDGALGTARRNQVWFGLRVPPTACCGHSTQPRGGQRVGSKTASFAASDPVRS
Chain of NFYA (chain, as listed by the source): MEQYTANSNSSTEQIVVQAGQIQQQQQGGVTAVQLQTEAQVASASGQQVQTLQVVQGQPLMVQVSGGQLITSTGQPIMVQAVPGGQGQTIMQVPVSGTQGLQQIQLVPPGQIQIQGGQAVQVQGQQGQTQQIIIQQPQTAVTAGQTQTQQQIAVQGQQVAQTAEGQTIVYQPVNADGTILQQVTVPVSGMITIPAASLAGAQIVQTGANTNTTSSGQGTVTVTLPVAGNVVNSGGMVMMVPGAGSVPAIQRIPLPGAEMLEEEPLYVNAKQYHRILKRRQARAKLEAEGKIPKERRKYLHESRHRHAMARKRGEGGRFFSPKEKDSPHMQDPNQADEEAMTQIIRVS

Row | Substance | melting temperature (HeLa Kyoto [1]; cell cycle stage: mitosis) | solubility in G1/S (log2) (HeLa Kyoto [2]) | solubility change mitosis (log2) (HeLa Kyoto [3]) | melting temperature (HeLa Kyoto [1]; cell cycle stage: G1/S)
1 | MALITLRKNLYRLSDFQMHRALAALKNKPLNHVHKVVKERLCPWLCSRQPEPFGVKFHHAHCKKFHSKNGNDLHPLGGPVFSQVSDCDRLEQNVKNEESQMFYRRLSNLTSSEEVLSFISTMETLPDTMAAGALQRICEVEKKDGDQGLPKEILENSIFQALCFQFEKEPSQLSNTSLVTALQALILLHVDPQSSLLLNLVAECQNRLRKGGMEVRNLCILGESLITLHSSGCVTLELIINQLQGEKLETFTPEDIVALYRILQACTEKVDEHQTFLNKINNFSLSIVSNLSPKLISQMLTALVVLDQSQAFPLIIKLGKYVVRHVPHFTNEELRRVLEAFIYFGHHDTFFTKALEHRVAAVCLTLDPEVVCRVMEYCSRELILSKPILNAVAETFVCQTEKFSPRQISALMEPFGKLNYLPPNASALFRKLENVLFTHFNYFPPKSLLKLLHSCSLNECHPVNFLAKIFKPLFLQRLQGKESHLDTLSRAQLTQLFLASVLECPFYKGPKLLPKYQVKSFLTPCCSLETPVDSQLYRYVKIGLTNLLGARLYFAPKVLTPYCYTIDVEIKLDEEGFVLPSTANEDIHKRIALCIDGPKRFCSNSKHLLGKEAIKQRHLQLLGYQVVQIPYHEIGMLKSRRELVEYLQRKLFSQNTVHWLQE [FASTKD3] | 47.8 °C | -0.00458 | -0.151 | –
2 | MELHILEHRLQVASVAKESIPLFTYGLIKLAFLSSKTRCKFFSLTETPEDYTIIVDEEGFLELPSSEHLSVADATWLALNVVSGGGSFSSSQPIGVTKIAKSVIAPLADQNISVFMLSTYQTDFILVRERDLPFVTHTLSSEFTILRVVNGETVAAENLGITNGFVKPKLVQRPVIHPLSSPSNRFCVTSLDPDTLPAVATLLMDVMFYSNGVKDPMATGDDCGHIRFFSFSLIEGYISLVMDVQTQQRFPSNLLFTSASGELWKMVRIGGQPLGFDECGIVAQISEPLAAADIPAYYISTFKFDHALVPEENINGVISALKVSQAEKH [GATSL2] | 57.8 °C | 0.084 | -0.149 | 56.4 °C
3 | NFYA | 58.1 °C | -0.0285 | -0.0439 | 58 °C
4 | MAAQGAAAAVAAGTSGVAGEGEPGPGENAAAEGTAPSPGRVSPPTPARGEPEVTVEIGETYLCRRPDSTWHSAEVIQSRVNDQEGREEFYVHYVGFNRRLDEWVDKNRLALTKTVKDAVQKNSEKYLSELAEQPERKITRNQKRKHDEINHVQKTYAEMDPTTAALEKEHEAITKVKYVDKIHIGNYEIDAWYFSPFPEDYGKQPKLWLCEYCLKYMKYEKSYRFHLGQCQWRQPPGKEIYRKSNISVYEVDGKDHKIYCQNLCLLAKLFLDHKTLYFDVEPFVFYILTEVDRQGAHIVGYFSKEKESPDGNNVACILTLPPYQRRGYGKFLIAFSYELSKLESTVGSPEKPLSDLGKLSYRSYWSWVLLEILRDFRGTLSIKDLSQMTSITQNDIISTLQSLNMVKYWKGQHVICVTPKLVEEHLKSAQYKKPPITVDSVCLKWAPPKHKQVKLSKK [KAT8] | 49.9 °C | -0.134 | -0.249 | –
5 | WNK2 | 52.6 °C | 0.2 | -0.0197 | –
6 | MDSELKEEIPVHEEFILCGGAETQVLKCGPWTDLFHDQSVKRPKLLIFIIPGNPGFSAFYVPFAKALYSLTNRRFPVWTISHAGHALAPKDKKILTTSEDSNAQEIKDIYGLNGQIEHKLAFLRTHVPKDMKLVLIGHSIGSYFTLQMLKRVPELPVIRAFLLFPTIERMSESPNGRIATPLLCWFRYVLYVTGYLLLKPCPETIKSLLIRRGLQVMNLENEFSPLNILEPFCLANAAYLGGQEMMEVVKRDDETIKEHLCKLTFYYGTIDPWCPKEYYEDIKKDFPEGDIRLCEKNIPHAFITHFNQEMADMIADSLKDDLSKM [LDAH] | – | 0.0802 | -0.331 | 52.3 °C
7 | MSEEEQGSGTTTGCGLPSIEQMLAANPGKTPISLLQEYGTRIGKTPVYDLLKAEGQAHQPNFTFRVTVGDTSCTGQGPSKKAAKHKAAEVALKHLKGGSMLEPALEDSSSFSPLDSSLPEDIPVFTAAAAATPVPSVVLTRSPPMELQPPVSPQQSECNPVGALQELVVQKGWRLPEYTVTQESGPAHRKEFTMTCRVERFIEIGSGTSKKLAKRNAAAKMLLRVHTVPLDARDGNEVEPDDDHFSIGVGSRLDGLRNRGPGCTWDSLRNSVGEKILSLRSCSLGSLGALGPACCRVLSELSEEQAFHVSYLDIEELSLSGLCQCLVELSTQPATVCHGSATTREAARGEAARRALQYLKIMAGSK [TARBP2] | 51.7 °C | 0.152 | 0.129 | –
8 | MEGGGGIPLETLKEESQSRHVLPASFEVNSLQKSNWGFLLTGLVGGTLVAVYAVATPFVTPALRKVCLPFVPATTKQIENVVKMLRCRRGSLVDIGSGDGRIVIAAAKKGFTAVGYELNPWLVWYSRYRAWREGVHGSAKFYISDLWKVTFSQYSNVVIFGVPQMMLQLEKKLERELEDDARVIACRFPFPHWTPDHVTGEGIDTVWAYDASTFRGREKRPCTSMHFQLPIQA [FAM173B] | – | -0.208 | -0.0503 | 54.7 °C
9 | DNAJC19 | 53.5 °C | -0.0616 | 0.348 | 53.4 °C
10 | MRDNTSPISVILVSSGSRGNKLLFRYPFQRSQEHPASQTSKPRSRYAASNTGDHADEQDGDSRFSDVILATILATKSEMCGQKFELKIDNVRFVGHPTLLQHALGQISKTDPSPKREAPTMILFNVVFALRANADPSVINCLHNLSRRIATVLQHEERRCQYLTREAKLILALQDEVSAMADGNEGPQSPFHHILPKCKLARDLKEAYDSLCTSGVVRLHINSWLEVSFCLPHKIHYAASSLIPPEAIERSLKAIRPYHALLLLSDEKSLLGELPIDCSPALVRVIKTTSAVKNLQQLAQDADLALLQVFQLAAHLVYWGKAIIIYPLCENNVYMLSPNASVCLYSPLAEQFSHQFPSHDLPSVLAKFSLPVSLSEFRNPLAPAVQETQLIQMVVWMLQRRLLIQLHTYVCLMASPSEEEPRPREDDVPFTARVGGRSLSTPNALSFGSPTSSDDMTLTSPSMDNSSAELLPSGDSPLNQRMTENLLASLSEHERAAILSVPAAQNPEDLRMFARLLHYFRGRHHLEEIMYNENTRRSQLLMLFDKFRSVLVVTTHEDPVIAVFQALLP [NPRL3] | 52.5 °C | -0.108 | 0.129 | 50.8 °C
11 | MASSLNEDPEGSRITYVKGDLFACPKTDSLAHCISEDCRMGAGIAVLFKKKFGGVQELLNQQKKSGEVAVLKRDGRYIYYLITKKRASHKPTYENLQKSLEAMKSHCLKNGVTDLSMPRIGCGLDRLQWENVSAMIEEVFEATDIKITVYTL [OARD1] | 50.5 °C | 0.299 | 0.139 | –
12 | MASSAASSEHFEKLHEIFRGLHEDLQGVPERLLGTAGTEEKKKLIRDFDEKQQEANETLAEMEEELRYAPLSFRNPMMSKLRNYRKDLAKLHREVRSTPLTATPGGRGDMKYGIYAVENEHMNRLQSQRAMLLQGTESLNRATQSIERSHRIATETDQIGSEIIEELGEQRDQLERTKSRLVNTSENLSKSRKILRSMSRKVTTNKLLLSIIILLELAILGGLVYYKFFRSH [VTI1B] | 52.5 °C | 0.392 | 0.188 | 53.5 °C
13 | MLGLCGQRLPAAWVLLLLPFLPLLLLAAPAPHRASYKPVIVVHGLFDSSYSFRHLLEYINETHPGTVVTVLDLFDGRESLRPLWEQVQGFREAVVPIMAKAPQGVHLICYSQGGLVCRALLSVMDDHNVDSFISLSSPQMGQYGDTDYLKWLFPTSMRSNLYRICYSPWGQEFSICNYWHDPHHDDLYLNASSFLALINGERDHPNATVWRKNFLRVGHLVLIGGPDDGVITPWQSSFFGFYDANETVLEMEEQLVYLRDSFGLKTLLARGAIVRCPMAGISHTAWHSNRTLYETCIEPWLS [PPT2] | 55.9 °C | 0.733 | -0.131 | 56.4 °C
14 | MFAKLKKKIAEETAVAQRPGGATRIPRSVSKESVASMGADSGDDFASDGSSSREDLSSQLLRRNEQIRKLEARLSDYAEQVRNLQKIKEKLEIALEKHQDSSMRKFQEQNETFQANRAKMAEGLALALARKDQEWSEKMDQLEKEKNILTAQLQEMKNQSMNLFQRRDEMDELEGFQQQELSKIKHMLLKKEESLGKMEQELEARTRELSRTQEELMNSNQMSSDLSQKLEELQRHYSTLEEQRDHVIASKTGAESKITALEQKEQELQALIQQLSIDLQKVTAETQEKEDVITHLQEKVASLEKRLEQNLSGEEHLQELLKEKTLAEQNLEDTRQQLLAARSSQAKAINTLETRVRELEQTLQASEEQLQQSKGIVAAQETQIQELAAANQESSHVQQQALALEQQFLERTQALEAQIVALERTRAADQTTAEQGMRQLEQENAALKECRNEYERSLQNHQFELKKLKEEWSQREIVSVAMAQALEEVRKQREEFQQQAANLTAIIDEKEQNLREKTEVLLQKEQEILQLERGHNSALLQIHQLQAELEALRTLKAEEAAVVAEQEDLLRLRGPLQAEALSVNESHVTSRAMQDPVFQLPTAGRTPNGEVGAMDLTQLQKEKQDLEQQLLEKNKTIKQMQQRMLELRKTLQKELKIRPDNELFEVREKPGPEMANMAPSVTNNTDLTDAREINFEYLKHVVLKFMSCRESEAFHLIKAVSVLLNFSQEEENMLKETLEYKMSWFGSKPAPKGSIRPSISNPRIPWS [GOLGA1] | – | 0.556 | 0.0219 | 49.5 °C
15 | MASSASARTPAGKRVINQEELRRLMKEKQRLSTSRKRIESPFAKYNRLGQLSCALCNTPVKSELLWQTHVLGKQHREKVAELKGAKEASQGSSASSAPHSVKRKAPDADDQDVKRAKATLVPQVQPSTSAWTTNFDKIGKEFIRATPSKPSGLSLLPDYEDEEEEEEEEEGDGERKRGDASKPLSDAQGKEHSVSSSREVTSSVLPNDFFSTNPPKAPIIPHSGSIEKAEIHEKVVERRENTAEALPEGFFDDPEVDARVRKVDAPKDQMDKEWDEFQKAMRQVNTISEAIVAEEDEEGRLDRQIGEIDEQIECYRRVEKLRNRQDEIKNKLKEILTIKELQKKEEENADSDDEGELQDLLSQDWRVKGALL [ZNF830] | 54.4 °C | 0.423 | 0.0142 | 56.2 °C
16 | MFPRPLTPLAAPNGAEPLGRALRRAPLGRARAGLGGPPLLLPSMLMFAVIVASSGLLLMIERGILAEMKPLPLHPPGREGTAWRGKAPKPGGLSLRAGDADLQVRQDVRNRTLRAVCGQPGMPRDPWDLPVGQRRTLLRHILVSDRYRFLYCYVPKVACSNWKRVMKVLAGVLDSVDVRLKMDHRSDLVFLADLRPEEIRYRLQHYFKFLFVREPLERLLSAYRNKFGEIREYQQRYGAEIVRRYRAGAGPSPAGDDVTFPEFLRYLVDEDPERMNEHWMPVYHLCQPCAVHYDFVGSYERLEADANQVLEWVRAPPHVRFPARQAWYRPASPESLHYHLCSAPRALLQDVLPKYILDFSLFAYPLPNVTKEACQQ [CHST14] | – | 0.333 | -0.0549 | 51.9 °C
17 | MAQEFVNCKIQPGKVVVFIKPTCPYCRRAQEILSQLPIKQGLLEFVDITATNHTNEIQDYLQQLTGARTVPRVFIGKDCIGGCSDLVSLQQSGELLTRLKQIGALQ [GLRX] | 53.4 °C | 0.253 | 0.0467 | 54.7 °C
